Reference: patent US20220177587A1, “METHODS AND USES OF VARIANT CD80 FUSION PROTEINS AND RELATED CONSTRUCTS” (Alpine Immune Sciences, Inc., priority 2018, published 2022)

What was measured:
human CTLA-4 (human) [1] = biological target: human CTLA-4 (human) (UniProt P16410); test: flow cytometry, CHO/huCTLA-4 cells; vs WT CD80 ECD-Fc (Abcam)
human PD-L1 (human) [2] = biological target: human PD-L1 (human) (UniProt Q9NZQ7); test: flow cytometry, CHO cells expressing huPD-L1
human PD-L1 (human) [3] = biological target: human PD-L1 (human) (UniProt Q9NZQ7); test: flow cytometry, CHO/huPD-L1 cells; vs WT CD80 ECD-Fc (Abcam)
human PD-L1 (human) [4] = biological target: human PD-L1 (human) (UniProt Q9NZQ7); test: flow cytometry; PD-L1 MFI over CD28 MFI of the same protein
CD28 (human) [5] = biological target: CD28 (human) (UniProt P10747); test: flow cytometry, Jurkat/IL2 reporter cells (CD28)
human CTLA-4 (human) [6] = biological target: human CTLA-4 (human) (UniProt P16410); test: flow cytometry, CHO cells expressing huCTLA-4
CD28 (human) [7] = biological target: CD28 (human) (UniProt P10747); test: flow cytometry, Jurkat cells (CD28); vs WT CD80 ECD-Fc (Abcam)
human PD-L1 (human) [8] = biological target: human PD-L1 (human) (UniProt Q9NZQ7); test: flow cytometry, CHO cells stably expressing PD-L1
CD28 (human) [9] = biological target: CD28 (human) (UniProt P10747); test: flow cytometry, Jurkat cells (CD28)
CD28 (human) [10] = biological target: CD28 (human) (UniProt P10747); test: flow cytometry, Jurkat cells (CD28); MFI over CD80 WT IgV-Fc
human CTLA-4 (human) [11] = biological target: human CTLA-4 (human) (UniProt P16410); test: flow cytometry, CHO/CTLA4 cells; MFI over CD80 WT IgV-Fc
human PD-L1 (human) [12] = biological target: human PD-L1 (human) (UniProt Q9NZQ7); test: flow cytometry, CHO/PD-L1 cells; MFI over CD80 WT IgV-Fc
human CTLA-4 (human) [13] = biological target: human CTLA-4 (human) (UniProt P16410); test: flow cytometry, CHO cells stably expressing CTLA4

Chain of human CTLA-4 (human) (P16410 36-223): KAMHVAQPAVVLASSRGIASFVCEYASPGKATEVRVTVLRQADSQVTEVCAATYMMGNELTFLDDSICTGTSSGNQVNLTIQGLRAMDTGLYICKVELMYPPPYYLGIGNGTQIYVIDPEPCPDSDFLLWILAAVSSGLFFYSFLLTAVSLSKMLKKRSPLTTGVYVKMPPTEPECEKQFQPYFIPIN
Chain of human PD-L1 (human) (Q9NZQ7 19-290): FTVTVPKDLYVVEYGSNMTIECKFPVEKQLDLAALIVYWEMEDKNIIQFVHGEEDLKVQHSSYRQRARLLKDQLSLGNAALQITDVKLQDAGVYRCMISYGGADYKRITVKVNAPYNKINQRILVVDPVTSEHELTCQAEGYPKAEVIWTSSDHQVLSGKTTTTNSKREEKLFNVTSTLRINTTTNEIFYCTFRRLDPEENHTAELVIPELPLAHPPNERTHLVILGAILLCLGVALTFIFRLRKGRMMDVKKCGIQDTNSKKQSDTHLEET

Binder	Fold change to WT CD80 (human CTLA-4 (human) [1]) [fold]	MFI at 33.3 nM (human PD-L1 (human) [2]) [MFI]	Fold change to WT CD80 (human PD-L1 (human) [3]) [fold]	Ratio of PDL1:CD28 (human PD-L1 (human) [4])	MFI at 33.3 nM (CD28 (human) [5]) [MFI]	MFI at 33.3 nM (human CTLA-4 (human) [6]) [MFI]	Fold change to WT CD80 (CD28 (human) [7]) [fold]	MFI at 33.3 nM (human PD-L1 (human) [8]) [MFI]	MFI at 33.3 nM (CD28 (human) [9]) [MFI]	Fold change to WT CD80 (CD28 (human) [10]) [fold]	Fold change to WT CD80 (human CTLA-4 (human) [11]) [fold]	Fold change to WT CD80 (human PD-L1 (human) [12]) [fold]	MFI at 33.3 nM (human CTLA-4 (human) [13]) [MFI]
variant CD80 IgV-Fc M47L (Fc fusion) VIHVTKEVKEVATLSCGHNVSVEELAQTRIYWQKEKKMVLTMMSGDLNIWPEYKNRTIFDITNNLSIVILALRPSDEGTYECVVLKYEKDAFKREHLAEVTLSVKAD	0.8	1900	14.8	6.1	309	30800	0.4	–	–	–	–	–	–
variant CD80 IgV-Fc E35D/D46V/M47L/V68M/L85Q (Fc fusion) VIHVTKEVKEVATLSCGHNVSVEELAQTRIYWQKDKKMVLTMMSGVLNIWPEYKNRTIFDITNNLSIMILALRPSDEGTYECVVQKYEKDAFKREHLAEVTLSVKAD	0.6	28400	222	61.2	464	26200	0.7	–	–	–	–	–	–
variant CD80 IgV-Fc (inert) H18F/A26D/E35D/D46E/M47T/V68M/A71G/D90G (Fc fusion) VIHVTKEVKEVATLSCGFNVSVEELDQTRIYWQKDKKMVLTMMSGETNIWPEYKNRTIFDITNNLSIMILGLRPSDEGTYECVVLKYEKGAFKREHLAEVTLSVKAD	–	–	–	–	–	–	–	27500	6030	59.1	12.4	167	17200
variant CD80 IgV-Fc (inert) H18Y/A26P/E35D/M47Y/V68I/A71G/D90G (Fc fusion) VIHVTKEVKEVATLSCGYNVSVEELPQTRIYWQKDKKMVLTMMSGDYNIWPEYKNRTIFDITNNLSIIILGLRPSDEGTYECVVLKYEKGAFKREHLAEVTLSVKAD	–	–	–	–	–	–	–	27300	1820	17.8	6	165	8280
variant CD80 IgV-Fc E35D/V68M/L85Q (Fc fusion) VIHVTKEVKEVATLSCGHNVSVEELAQTRIYWQKDKKMVLTMMSGDMNIWPEYKNRTIFDITNNLSIMILALRPSDEGTYECVVQKYEKDAFKREHLAEVTLSVKAD	1.1	5970	46.6	78.4	76.2	42800	0.1	–	–	–	–	–	–
variant CD80 IgV-Fc (inert) H18Y/E35D/M47V/V68L/A71G/D90G (Fc fusion) VIHVTKEVKEVATLSCGYNVSVEELAQTRIYWQKDKKMVLTMMSGDVNIWPEYKNRTIFDITNNLSILILGLRPSDEGTYECVVLKYEKGAFKREHLAEVTLSVKAD	–	–	–	–	–	–	–	47900	2550	25	11.9	290	16500
variant CD80 IgV-Fc (inert) H18F/A26P/E35D/M47I/V68M/A71G/D90G (Fc fusion) VIHVTKEVKEVATLSCGFNVSVEELPQTRIYWQKDKKMVLTMMSGDINIWPEYKNRTIFDITNNLSIMILGLRPSDEGTYECVVLKYEKGAFKREHLAEVTLSVKAD	–	–	–	–	–	–	–	32300	4800	47.1	17.3	196	23900
variant CD80 IgV-Fc E35D/N48K/K89N (Fc fusion) VIHVTKEVKEVATLSCGHNVSVEELAQTRIYWQKDKKMVLTMMSGDMKIWPEYKNRTIFDITNNLSIVILALRPSDEGTYECVVLKYENDAFKREHLAEVTLSVKAD	0.9	5770	45	14	411	34700	0.6	–	–	–	–	–	–
variant CD80 IgV-Fc E35D/M47L/V68M (Fc fusion) VIHVTKEVKEVATLSCGHNVSVEELAQTRIYWQKDKKMVLTMMSGDLNIWPEYKNRTIFDITNNLSIMILALRPSDEGTYECVVLKYEKDAFKREHLAEVTLSVKAD	0.7	27900	218	22.4	1240	28600	1.8	–	–	–	–	–	–
variant CD80 IgV-Fc E35D/N48K (Fc fusion) VIHVTKEVKEVATLSCGHNVSVEELAQTRIYWQKDKKMVLTMMSGDMKIWPEYKNRTIFDITNNLSIVILALRPSDEGTYECVVLKYEKDAFKREHLAEVTLSVKAD	1	6540	51.1	33.7	194	41300	0.3	–	–	–	–	–	–
variant CD80 IgV-Fc D46V/L85Q (Fc fusion) VIHVTKEVKEVATLSCGHNVSVEELAQTRIYWQKEKKMVLTMMSGVMNIWPEYKNRTIFDITNNLSIVILALRPSDEGTYECVVQKYEKDAFKREHLAEVTLSVKAD	1	2200	17.2	16.8	131	41900	0.2	–	–	–	–	–	–
variant CD80 IgV-Fc (inert) H18F/A26N/E35D/M47V/V68M/A71G/D90K (Fc fusion) VIHVTKEVKEVATLSCGFNVSVEELNQTRIYWQKDKKMVLTMMSGDVNIWPEYKNRTIFDITNNLSIMILGLRPSDEGTYECVVLKYEKKAFKREHLAEVTLSVKAD	–	–	–	–	–	–	–	22400	3170	31.1	11	136	15200
variant CD80 IgV-Fc (inert) H18V/A26Q/E35D/M47V/V68L/A71G/D90G (Fc fusion) VIHVTKEVKEVATLSCGVNVSVEELQQTRIYWQKDKKMVLTMMSGDVNIWPEYKNRTIFDITNNLSILILGLRPSDEGTYECVVLKYEKGAFKREHLAEVTLSVKAD	–	–	–	–	–	–	–	33600	3130	30.6	12.8	204	17700
variant CD80 IgV-Fc E35D/D46V/M47L/L85Q (Fc fusion) VIHVTKEVKEVATLSCGHNVSVEELAQTRIYWQKDKKMVLTMMSGVLNIWPEYKNRTIFDITNNLSIVILALRPSDEGTYECVVQKYEKDAFKREHLAEVTLSVKAD	0.9	7520	58.8	28.1	268	38200	0.4	–	–	–	–	–	–
variant CD80 IgV-Fc (inert) H18V/A26D/E35D/M47V/V68M/A71G/D90G (Fc fusion) VIHVTKEVKEVATLSCGVNVSVEELDQTRIYWQKDKKMVLTMMSGDVNIWPEYKNRTIFDITNNLSIMILGLRPSDEGTYECVVLKYEKGAFKREHLAEVTLSVKAD	–	–	–	–	–	–	–	67500	6250	61.3	16	409	22100
variant CD80 IgV-Fc D46V/M47L/V68M (Fc fusion) VIHVTKEVKEVATLSCGHNVSVEELAQTRIYWQKEKKMVLTMMSGVLNIWPEYKNRTIFDITNNLSIMILALRPSDEGTYECVVLKYEKDAFKREHLAEVTLSVKAD	0.9	28000	219	12.8	2180	34700	3.1	–	–	–	–	–	–
